Assays:
Test in all cases: SPR
[1] = target: h9C12 H435A (mouse | human)
[2] = target: h9C12 N434D (mouse | human)
[3] = target: h9C12 H433K (mouse | human)
[4] = target: h9C12 N434S (mouse | human)
[5] = target: h9C12 L235A (mouse | human)
[6] = target: h9C12 I253A (mouse | human)
[7] = target: humanized 9C12 (h9C12), wild type, human IgG1/kappa (mouse | human)
[8] = target: h9C12 P329A (mouse | human)
[9] = target: h9C12 N434A (mouse | human)
[10] = target: h9C12 H310A (mouse | human)

Work on “Recombinant human TRIM21 PRYSPRY (from UniProt P19474 287-465) (domain or fragment)” yielded a Kd [1] of 5530 nM, a Kd [2] of 4500 nM and a Kd [3] of 21500 nM. The Kd [4] was 3600 nM, the Kd [5] was 226 nM and the koff [5] was 0.062 s⁻¹. For the same substance, the Kd [6] was 565 nM, the koff [6] was 0.177 s⁻¹ and the Kd [7] was 212 nM. It also gave a Kd [8] of 220 nM, a koff [8] of 0.062 s⁻¹ and a Kd [9] of 2000 nM. It also gave a Kd [10] of 262 nM and a koff [10] of 0.086 s⁻¹.

Source: publication PMC4977002
